The test system of series [1] is HeLa Kyoto. Description: melting temperature (median over replicates), in situ; higher = more thermally stable.
For series [2], the system named is HeLa Kyoto. Description: solubility change mitosis vs G1/S (difference of NP-40 vs SDS log2 ratios) (log2 ratio difference); higher = more soluble in mitosis.
Series [3] relates to HeLa Kyoto. Description: solubility in G1/S (NP-40 vs SDS abundance) (log2 ratio); higher = more soluble. The conditions noted are these: cell cycle stage: G1/S.
Series [4] has as its system HeLa Kyoto. Description: thermal stability score vs G1/S (z-score of summed log2 fold changes over temperatures); higher = more thermally stable than in G1/S.
Where [5] appears, read: cell cycle stage: early G1 (4.5 h after nocodazole release).
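Wherever melting temperature (median over replicates), in situ is given: HeLa Kyoto cells synchronized by double thymidine or nocodazole block, proteins quantified by TMT10plex mass spectrometry, three independent biological replicates.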
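Wherever solubility change mitosis vs G1/S (difference of NP-40 vs SDS log2 ratios) is given: synchronized HeLa Kyoto cells (double thymidine block for G1/S, nocodazole release for mitosis), protein amounts in NP-40 versus SDS lysates quantified by mass spectrometry, three biological replicates.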
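Wherever solubility in G1/S (NP-40 vs SDS abundance) is given: HeLa Kyoto cells arrested at G1/S by double thymidine block, proteins quantified by TMT10plex mass spectrometry in mild NP-40 versus SDS extracts, three biological replicates.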
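Wherever thermal stability score vs G1/S (z-score of summed log2 fold changes over temperatures) is given: synchronized HeLa Kyoto cells, proteins quantified by TMT10plex mass spectrometry, three biological replicates, mitosis taken 0.5 h after nocodazole release, G1/S directly after double thymidine block.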

For “MEPRAVGVSKQDIREQIWGYMESQNLADFPRPVHHRIPNFKGSYLACQNIKDLDVFARTQEVKVDPDKPLEGVRLLVLQSKKTLLVPTPRLRTGLFNKITPPPGATKDILRKCATSQGVRNYSVPIGLDSRVLVDLVVVGSVAVSEKGWRIGKGEGYADLEYAMMVSMGAVSKETPVVTIVHDCQVVDIPEELVEEHDITVDYILTPTRVIATGCKRPKPMGITWFKISLEMMEKIPILRSLRAREQQAGKDVTLQGEHQHLPEPGCQQTVPLSVGRRPPDTPGPETNSMEAAPGSPPGEGAPLAADVYVGNLPGDARVSDLKRALRELGSVPLRLTWQGPRRRAFLHYPDSAAAQQAVSCLQGLRLGTDTLRVALARQQRDK [MTHFSD]”, the figures for the melting temperature in series [1] (cell cycle stage: G1/S) and in series [1] (cell cycle stage: mitosis) were 54.7 °C and 53.5 °C, respectively. Besides, in series [2], the “solubility change mitosis (log2)” value came out at 0.0284. Moreover, the “solubility in G1/S (log2)” value in series [3] was -0.0248. Moreover, the thermal stability score in series [4] (setting [5]) is -0.334; in series [4] (cell cycle stage: mitosis) it was -0.971.

“MDLSELERDNTGRCRLSSPVPAVCRKEPCVLGVDEAGRGPVLGPMVYAICYCPLPRLADLEALKVADSKTLLESERERLFAKMEDTDFVGWALDVLSPNLISTSMLGRVKYNLNSLSHDTATGLIQYALDQGVNVTQVFVDTVGMPETYQARLQQSFPGIEVTVKAKADALYPVVSAASICAKVARDQAVKKWQFVEKLQDLDTDYGSGYPNDPKTKAWLKEHVEPVFGFPQFVRFSWRTAQTILEKEAEDVIWEDSASENQEGLRKITSYFLNEGSQARPRSSHRYFLERGLESATSL [RNASEH2A]”: the melting temperature is 49.9 °C in series [1] (cell cycle stage: G1/S) and 50.5 °C in series [1] (cell cycle stage: mitosis). In series [2], the “solubility change mitosis (log2)” value was -0.012. Further, the “solubility in G1/S (log2)” value in series [3] is 0.206. Besides, the thermal stability score in series [4] (setting [5]) was determined as 0.166; in series [4] (cell cycle stage: mitosis), 0.422.

As for “MCDFTEDQTAEFKEAFQLFDRTGDGKILYSQCGDVMRALGQNPTNAEVLKVLGNPKSDEMNVKVLDFEHFLPMLQTVAKNKDQGTYEDYVEGLRVFDKEGNGTVMGAEIRHVLVTLGEKMTEEEVEMLVAGHEDSNGCINYEAFVRHILSG [MYL6]”, the melting temperature in series [1] (cell cycle stage: G1/S) is 51.8 °C; in series [1] (cell cycle stage: mitosis) it was 51.7 °C. In addition, the “solubility change mitosis (log2)” value in series [2] turned out to be 0.21. Further, the “solubility in G1/S (log2)” value in series [3] is -0.12. In addition, the thermal stability score in series [4] (setting [5]) was -3.33; in series [4] (cell cycle stage: mitosis), -1.53.

Consider “MKRSSVSSGGAGRLSMQELRSQDVNKQGLYTPQTKEKPTFGKLSINKPTSERKVSLFGKRTSGHGSRNSQLGIFSSSEKIKDPRPLNDKAFIQQCIRQLCEFLTENGYAHNVSMKSLQAPSVKDFLKIFTFLYGFLCPSYELPDTKFEEEVPRIFKDLGYPFALSKSSMYTVGAPHTWPHIVAALVWLIDCIKIHTAMKESSPLFDDGQPWGEETEDGIMHNKLFLDYTIKCYESFMSGADSFDEMNAELQSKLKDLFNVDAFKLESLEAKNRALNEQIARLEQEREKEPNRLESLRKLKASLQGDVQKYQAYMSNLESHSAILDQKLNGLNEEIARVELECETIKQENTRLQNIIDNQKYSVADIERINHERNELQQTINKLTKDLEAEQQKLWNEELKYARGKEAIETQLAEYHKLARKLKLIPKGAENSKGYDFEIKFNPEAGANCLVKYRAQVYVPLKELLNETEEEINKALNKKMGLEDTLEQLNAMITESKRSVRTLKEEVQKLDDLYQQKIKEAEEEDEKCASELESLEKHKHLLESTVNQGLSEAMNELDAVQREYQLVVQTTTEERRKVGNNLQRLLEMVATHVGSVEKHLEEQIAKVDREYEECMSEDLSENIKEIRDKYEKKATLIKSSEE [NDC80]”, for which the melting temperature was 47.4 °C in series [1] (cell cycle stage: G1/S) and 47.7 °C in series [1] (cell cycle stage: mitosis). Moreover, the “solubility change mitosis (log2)” value in series [2] stood at 0.0863. For the same sequence, the “solubility in G1/S (log2)” value in series [3] was determined as 0.548. The thermal stability score amounted to 0.223 in series [4] (setting [5]) and 0.715 in series [4] (cell cycle stage: mitosis).

On to “MIVQRVVLNSRPGKNGNPVAENFRMEEVYLPDNINEGQVQVRTLYLSVDPYMRCRMNEDTGTDYITPWQLSQVVDGGGIGIIEESKHTNLTKGDFVTSFYWPWQTKVILDGNSLEKVDPQLVDGHLSYFLGAIGMPGLTSLIGIQEKGHITAGSNKTMVVSGAAGACGSVAGQIGHFLGCSRVVGICGTHEKCILLTSELGFDAAINYKKDNVAEQLRESCPAGVDVYFDNVGGNISDTVISQMNENSHIILCGQISQYNKDVPYPPPLSPAIEAIQKERNITRERFLVLNYKDKFEPGILQLSQWFKEGKLKIKETVINGLENMGAAFQSMMTGGNIGKQIVCISEEISL [PTGR2]”, for which the melting temperature in series [1] (cell cycle stage: G1/S) stood at 50.5 °C; in series [1] (cell cycle stage: mitosis), 50.6 °C. Moreover, in series [2], the “solubility change mitosis (log2)” value was -0.0529. Further, the “solubility in G1/S (log2)” value in series [3] was determined as 0.0876. Besides, the thermal stability score is 0.0557 in series [4] (setting [5]) and -0.682 in series [4] (cell cycle stage: mitosis).

For the sequence “MLSSTAMYSAPGRDLGMEPHRAAGPLQLRFSPYVFNGGTILAIAGEDFAIVASDTRLSEGFSIHTRDSPKCYKLTDKTVIGCSGFHGDCLTLTKIIEARLKMYKHSNNKAMTTGAIAAMLSTILYSRRFFPYYVYNIIGGLDEEGKGAVYSFDPVGSYQRDSFKAGGSASAMLQPLLDNQVGFKNMQNVEHVPLSLDRAMRLVKDVFISAAERDVYTGDALRICIVTKEGIREETVSLRKD [PSMB1]”, the melting temperature in series [1] (cell cycle stage: G1/S) turned out to be 57 °C; in series [1] (cell cycle stage: mitosis), 60.1 °C. Also, in series [2], the “solubility change mitosis (log2)” value is -0.098. For the same sequence, in series [3], the “solubility in G1/S (log2)” value is -0.00543. For the same sequence, the thermal stability score in series [4] (setting [5]) was -1.78; in series [4] (cell cycle stage: mitosis), -1.88.

Source of the values: the supplement of paper PMC5998384.
